Data on one molecule can be found in paper PMC10843684 (Molecular cell, 2023).

The assay addresses T1, Gid2 (RING subunit of the GID E3 catalytic module) (S. cerevisiae, UniProt Q12508 1-421).
T1 sequence: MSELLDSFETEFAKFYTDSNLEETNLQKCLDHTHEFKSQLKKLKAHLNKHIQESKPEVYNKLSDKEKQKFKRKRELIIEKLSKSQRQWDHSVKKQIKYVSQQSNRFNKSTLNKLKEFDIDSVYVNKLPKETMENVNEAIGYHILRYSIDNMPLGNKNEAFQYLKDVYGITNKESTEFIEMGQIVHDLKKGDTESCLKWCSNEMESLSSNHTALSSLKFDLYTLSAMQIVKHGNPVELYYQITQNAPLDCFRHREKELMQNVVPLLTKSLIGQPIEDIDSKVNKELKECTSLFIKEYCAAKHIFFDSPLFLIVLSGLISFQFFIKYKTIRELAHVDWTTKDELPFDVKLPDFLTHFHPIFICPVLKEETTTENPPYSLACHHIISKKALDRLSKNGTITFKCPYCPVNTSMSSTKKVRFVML
The assay can be described thus: cryo-EM structure.

B1: Ubc8 C85K, insect cell-expressed and phosphorylated (the E2 chain of the Ubc8~ubiquitin mimic) (enzyme, S. cerevisiae)
chain: MSSSKRRIETDVMKLLMSDHQVDLINDSMQEFHVKFLGPKDTPYENGVWRLHVELPDNYPYKSPSIGFVNKIFHPNIDIASGSIKLDVINSTWSPLYDLINIVEWMIPGLLKEPNGSDPLNNEAATLQLRDKKLYEEKIKEYIDKYATKEKYQQMFGGDNDSDDSDSGGDLQEEDSDSDEDMDGTGVSSGDDSVDELSEDLSDIDVSDDDDYDEVANQ
modifications: heterogeneously phosphorylated C-terminal extension (phosphoserines 202 and 207 modelled); K85 isopeptide-bonded to ubiquitin
For the molecule B1, the binding result is given as “binds”.
